In a protein production outcome set (Wang et al. 2014):

Assay: label from the status in PepcDB records

| Sequence | protein production |
| --- | --- |
| LLLEIGLEEMPARFLNESMVQLGDKLTGWLKEKNITHGEVKLFNTPRRLAVFVKDVAEKQDDIKEEAKGPAKKIALDADGNWTKAAIGFSKGQGANVEDLYIKEVKGIEYVFVQKFQAGQETKSLLPELSGLITSLHFPKNMRWGNEDLRYIRPIKWIVALFGQDVIPFSITNVESGRTTQGHRFLGHEVSIESPSAYEEQLKGQHVIADPSVRKQMIQSQLETMAAENNWSIPVDEDLLDEVNHLVEYPTALYGSFESEFLSIPEEVLVTTMKEHQRYFPVKDKNGDLLPHFITVRNGNSHAIENVARGNEKVLRARLSDASFFYKEDQKLNIDANVKKLENIVFHEELGSLADKVRRVTSIAEKLAVRLQADEDTLKHVKRAAEISKFDLVTHMIYEFPELQGIMGEKYARMLGEDEAVAAAVNEHYMPRSAGGETPSTFTGAVVAMADKLDTIASFFSIGVIPTGSQDPYGLPRQASGIVAILLDRNWGISFEELLTFVQTDKENELLDFFTQRLKYVLNAEQIRHDVIDAVLESSELE | not failed |
| MDKIRTLLLRLPRRQKRVLQVVTDILLVWVALWMAFVVRLGFDDLNNPFIVHFWLFASAPIVAIPLFIRFGMYRAVMRYFGNDALIAIVKAVTLSALTLALVVYVYSNHQTVVPRSIVFNYWWLSMVMIGGLRLAMRQYFLGDWFTTAQHVPFTNRDDGLPKVAIYGAGAAGNQLVAALRLGRLMRPVAFIDDDGSIADRMIAGLQVYKPKHLQQMIDDTGAEEILLAIPSSSRSRRREILGYLEGFPLHVRSVPGFMDLASGRVKVDDIQEVDIADLLGRDAVPAQVDLLAHCIKGQTVLVTGAGGSIGSELCRQILLQGPSTLILLDHSEFNLYSILSELEQRVSRESRLVKLLPILGSVRNYEKLLSVMRTWSVDTVYHAAAYKHVPMVEHNIAEGVLNNVMGTLNTAQAALQCGVANFVLISTDKAVRPTNVMGSTKRLAELTLQALSKELAPVLFDDLSNVSRVNKTRFTMVRFGNVLGSSGSVIPLFHKQIKSGGPLTVTHPKITRYFMTIPEAAQLVIQAGSMGQGGDVFVLDMGEPVRIVELAEKMIHLSGLSVRSEKNPHGDIAIEFTGLRPGEKLYEELLIGDNVAATQHPMIMSANEDHLPWETLKLKLAELLAALELDDYARVRQLLRETVSGYTPDGEIVDWVYQQRRLKP | failed |
| FGNQKIFVCDARADWTNEFRTCSMFKNVHINRWYVITPSRNLRETQEFVQMCIRTASSMKMNICNPIYEEIPDDRNGTYSQAIDNAAANDPQIVMVVMRS | failed |
| PPAAVGPWDDILAPLYRYTRARARELAETRETMQSMLAAAQALPDGVVTLNEDFQIDWANRMARRHLGLRLPADRGHNLLNLLRAPEFVAYAHRGHWPEPILVRLSLNGQERVMMIHLAGYAS | failed |
| MASLGFNLGFTFSNAQIQQHRKVSGGGRARVISCNSSSSSSSQASSPQGISAVTPLEIELEFFGPKPGSDGSYPVDKAKAVSGDKLLRSIMQDNKIELYAAYGKVMNCGGGGSCGTCIVEILDGRDLLNERTDTENRYLKKKPESWRLACQTIVGNKENSGKSALDIGCRAADSTVEEVN | failed |
| MAAGKRDYYEVLGISKNASSQDIKRAFRKLAMQYHPDRHKAENETTQKQNEEKFKEVNEAYEVLSDEEKRKLYDQFGHEGLNASGFHEAGFNPFDIFNSVFGEGFSFGMDGDSPFDFIFNRSKKRQQQIVVPYNLDIALVIEINFFEMTNGCNKTIKYERKVSCHSCNGFGAEGGESGLDLCKDCNGNGFVIKNQRSIFGTIQSQVLCSTCNGQGKQIKVKCKTCRSNKYTVTNQIKEINIPAGMYSGEALVDESGGNEFKGHYGKLIIQVNVLASKIFKRSDNNVIANVLVDPMVAIVGGVIELPTLEGIKEFNIRPGTKSGEQIVIPNGGIKFSKSFKRKAGDLIIIISYARPCEYTNLELKKLREFIKPNQEVKQYLNTLKNEYKT | failed |
| MSKGKKIFAIIFGIILVLFLAVVGMGAKLYWDVSKSMDKTYETVERSKKSQVNLNNKEPFSVLLLGIDTGDDGRVEQGRSDTTIVATVNPRDKQTTLVSLARDTYVDIPGQGKQDKLNHAYAFGGASLAMDTVENYLNIPINHYVSINMAGLKELVNAVGGIEVNNNLTFSQDGYDFTIGKISLDGEQALSYSRMRYEDPNGDYGRQERQRKVIEGIVQKVLSLNSVSNYQEILTAVSDNMKTDLSFDDMKKIALDYRSAFGKVKQDQLQGTGFMQDGVSYQRVDEQELTRVQQELKNQLNTK | failed |
| MDQLSEKQIWYYHIIPEYQTEKSFYACVRRSGMIKFDTFYFPHMLSARETQRSIKFGDGVWSGCLYDPDIYTDGKISIQGVGGVLFPREAEIGGCVCLCLIFLIKLGLSTKYMKSHVSFDVSCDL | failed |
